Like-named read-outs stand apart in the source and are kept apart here.
How the values were obtained:
[1] = target: LAG-3 on activated human CD4+ T cells (human) (UniProt P18627); assay: flow cytometry on activated human CD4+ T cells, MFI curve
human LAG-3-His (human) [2] = target: human LAG-3-His (human) (UniProt P18627); assay: BLI (ForteBio), antibody on AHQ tip, human LAG-3-His 100 nM in solution
human LAG-3-His (human) [3] = target: human LAG-3-His (human) (UniProt P18627); assay: BLI (ForteBio), antibody on AHQ tip, human LAG-3-His 100 nM in solution, univalent
[4] = target: rhLAG3 protein (huFc) (human) (UniProt P18627); assay: flow cytometry, blocking of rhLAG3 (huFc) 20 nM binding to HLA-DR on CHO-DR cells
Chain of rhLAG3 protein (huFc) (human) (P18627 23-450 limits assumed): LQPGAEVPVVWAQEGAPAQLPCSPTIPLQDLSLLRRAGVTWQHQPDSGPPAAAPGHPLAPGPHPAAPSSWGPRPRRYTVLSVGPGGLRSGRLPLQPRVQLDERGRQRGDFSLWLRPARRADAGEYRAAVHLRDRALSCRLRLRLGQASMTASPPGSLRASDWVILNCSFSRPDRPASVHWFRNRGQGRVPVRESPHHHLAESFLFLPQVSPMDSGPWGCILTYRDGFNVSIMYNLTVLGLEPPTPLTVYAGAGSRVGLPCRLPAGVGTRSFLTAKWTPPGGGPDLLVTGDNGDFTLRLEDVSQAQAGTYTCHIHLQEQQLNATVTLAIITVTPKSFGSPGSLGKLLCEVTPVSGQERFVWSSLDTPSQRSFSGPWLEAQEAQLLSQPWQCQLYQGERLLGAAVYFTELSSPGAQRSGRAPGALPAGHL

[5] = target: human LAG-3 overexpressed on HEK293 cells (human) (UniProt P18627); assay: flow cytometry on 293-hLAG-3 cells, MFI curve
Chain of human LAG-3 overexpressed on HEK293 cells (human) (P18627 23-525): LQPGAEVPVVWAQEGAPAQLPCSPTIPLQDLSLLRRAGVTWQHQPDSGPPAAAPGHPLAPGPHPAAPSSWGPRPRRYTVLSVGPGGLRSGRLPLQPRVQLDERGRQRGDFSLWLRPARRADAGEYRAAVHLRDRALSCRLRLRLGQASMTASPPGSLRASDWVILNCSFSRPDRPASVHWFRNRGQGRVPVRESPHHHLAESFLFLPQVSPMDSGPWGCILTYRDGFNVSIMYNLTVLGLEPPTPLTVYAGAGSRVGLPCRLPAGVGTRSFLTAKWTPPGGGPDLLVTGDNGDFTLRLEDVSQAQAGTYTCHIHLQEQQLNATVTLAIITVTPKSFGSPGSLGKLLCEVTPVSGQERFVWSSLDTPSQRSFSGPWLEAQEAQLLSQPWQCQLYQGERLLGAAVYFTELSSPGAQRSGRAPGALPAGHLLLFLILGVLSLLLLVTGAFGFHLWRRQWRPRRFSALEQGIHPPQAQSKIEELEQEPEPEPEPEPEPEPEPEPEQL

[6] = target: human LAG-3 overexpressed on HEK293 cells (human) (UniProt P18627); assay: flow cytometry on 293-hLAG-3 cells, MFI curve; remark: listed apart in the source

Chain of human LAG-3-His (human) (P18627 23-450 limits assumed): as the sequence (P18627 23-450 limits assumed) above
Chain of LAG-3 on activated human CD4+ T cells (human) (P18627 23-525): as the sequence (P18627 23-525) above

Substance 25F7 (antibody) has an EC50 [1] of 0.036 nM, a koff (human LAG-3-His (human) [2]) of 0.00101 s⁻¹ and a kon (human LAG-3-His (human) [2]) of 112000 M⁻¹ s⁻¹. It also gave a Kd (human LAG-3-His (human) [3]) of 9.02 nM, an IC50 [4] of 5.14 nM and an EC50 [5] of 3.34 nM. The EC50 [6] was 2.59 nM.
